Assay results reported in paper PMC12416549 (2024).

Target: T1, TNFR1 (Homo sapiens, UniProt P19438)
T1 chain: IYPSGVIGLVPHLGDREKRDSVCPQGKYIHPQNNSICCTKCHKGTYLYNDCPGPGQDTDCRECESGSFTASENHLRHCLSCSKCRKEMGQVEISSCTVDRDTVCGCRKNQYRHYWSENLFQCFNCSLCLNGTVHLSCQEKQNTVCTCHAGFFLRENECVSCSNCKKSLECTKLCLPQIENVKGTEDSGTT
Test: yeast display SC50

B1: A55S (designed binder)
chain: SMEEEVEKAAKEYEKKKKEAIEKHLEKLKAKDKEAAERFLKELEEAAKEYAKDESKTMSEEEAKRRAKKYKEKVLLSELSEEEQKEIKEAEEKLVRTILKYVEEAAK
apparent Kd (screen): 1.69 nM

B2: K93G (designed binder)
chain: SMEEEVEKAAKEYEKKKKEAIEKHLEKLKAKDKEAAERFLKELEEAAKEYAKDEAKTMSEEEAKRRAKKYKEKVLLSELSEEEQKEIKEAEEGLVRTILKYVEEAAK
apparent Kd (screen): 0.79 nM

B3: V74C (designed binder)
chain: SMEEEVEKAAKEYEKKKKEAIEKHLEKLKAKDKEAAERFLKELEEAAKEYAKDEAKTMSEEEAKRRAKKYKEKCLLSELSEEEQKEIKEAEEKLVRTILKYVEEAAK
apparent Kd (screen): 4.39 nM

B4: K69R (designed binder)
chain: SMEEEVEKAAKEYEKKKKEAIEKHLEKLKAKDKEAAERFLKELEEAAKEYAKDEAKTMSEEEAKRRAKRYKEKVLLSELSEEEQKEIKEAEEKLVRTILKYVEEAAK
apparent Kd (screen): 1.27 nM

B5: E86H (designed binder)
chain: SMEEEVEKAAKEYEKKKKEAIEKHLEKLKAKDKEAAERFLKELEEAAKEYAKDEAKTMSEEEAKRRAKKYKEKVLLSELSEEEQKHIKEAEEKLVRTILKYVEEAAK
apparent Kd (screen): 1.69 nM

B6: E26T (designed binder)
chain: SMEEEVEKAAKEYEKKKKEAIEKHLTKLKAKDKEAAERFLKELEEAAKEYAKDEAKTMSEEEAKRRAKKYKEKVLLSELSEEEQKEIKEAEEKLVRTILKYVEEAAK
apparent Kd (screen): 0.593 nM

B7: K17N (designed binder)
chain: SMEEEVEKAAKEYEKKNKEAIEKHLEKLKAKDKEAAERFLKELEEAAKEYAKDEAKTMSEEEAKRRAKKYKEKVLLSELSEEEQKEIKEAEEKLVRTILKYVEEAAK
apparent Kd (screen): 2.73 nM

B8: A67P (designed binder)
chain: SMEEEVEKAAKEYEKKKKEAIEKHLEKLKAKDKEAAERFLKELEEAAKEYAKDEAKTMSEEEAKRRPKKYKEKVLLSELSEEEQKEIKEAEEKLVRTILKYVEEAAK
apparent Kd (screen): 0.593 nM

B9: L75S (designed binder)
chain: SMEEEVEKAAKEYEKKKKEAIEKHLEKLKAKDKEAAERFLKELEEAAKEYAKDEAKTMSEEEAKRRAKKYKEKVSLSELSEEEQKEIKEAEEKLVRTILKYVEEAAK
apparent Kd (screen): 0.718 nM

B10: L43E (designed binder)
chain: SMEEEVEKAAKEYEKKKKEAIEKHLEKLKAKDKEAAERFLKEEEEAAKEYAKDEAKTMSEEEAKRRAKKYKEKVLLSELSEEEQKEIKEAEEKLVRTILKYVEEAAK
apparent Kd (screen): 16.7 nM

B11: E37Y (designed binder)
chain: SMEEEVEKAAKEYEKKKKEAIEKHLEKLKAKDKEAAYRFLKELEEAAKEYAKDEAKTMSEEEAKRRAKKYKEKVLLSELSEEEQKEIKEAEEKLVRTILKYVEEAAK
apparent Kd (screen): 0.49 nM

B12: K29Q (designed binder)
chain: SMEEEVEKAAKEYEKKKKEAIEKHLEKLQAKDKEAAERFLKELEEAAKEYAKDEAKTMSEEEAKRRAKKYKEKVLLSELSEEEQKEIKEAEEKLVRTILKYVEEAAK
apparent Kd (screen): 0.593 nM

B13: E72A (designed binder)
chain: SMEEEVEKAAKEYEKKKKEAIEKHLEKLKAKDKEAAERFLKELEEAAKEYAKDEAKTMSEEEAKRRAKKYKAKVLLSELSEEEQKEIKEAEEKLVRTILKYVEEAAK
apparent Kd (screen): 2.73 nM

B14: V6E (designed binder)
chain: SMEEEEEKAAKEYEKKKKEAIEKHLEKLKAKDKEAAERFLKELEEAAKEYAKDEAKTMSEEEAKRRAKKYKEKVLLSELSEEEQKEIKEAEEKLVRTILKYVEEAAK
apparent Kd (screen): 11.4 nM
